Reference: patent US7344856
“Also recorded” adds a separate entry of the source.

Legend:
[1] = target: fusion protein expressed by pG117S4HompRHKR
[2] = target: fusion protein PRhANP, P01160
[3] = target: fusion protein PRhCT, P01258
Dynorphine A, P01213 = target: T1, Dynorphine A, P01213
T1 chain: YGGFLRRIRPKLKWDNQ

Sequence of fusion protein PRhCT, P01258 (P01258 other isoform, or with tags, fused parts or gaps): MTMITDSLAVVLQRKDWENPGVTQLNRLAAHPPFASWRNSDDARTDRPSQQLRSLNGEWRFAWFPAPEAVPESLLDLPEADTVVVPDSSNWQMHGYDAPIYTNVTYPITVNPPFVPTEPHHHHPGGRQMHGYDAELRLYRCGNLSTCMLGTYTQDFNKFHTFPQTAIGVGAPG
Sequence of fusion protein PRhANP, P01160 (P01160 other isoform, or with tags, fused parts or gaps): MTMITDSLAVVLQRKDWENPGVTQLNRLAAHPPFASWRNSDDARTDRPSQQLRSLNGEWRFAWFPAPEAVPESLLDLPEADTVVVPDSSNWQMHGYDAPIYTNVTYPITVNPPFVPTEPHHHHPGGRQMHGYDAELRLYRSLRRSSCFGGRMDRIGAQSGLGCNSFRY

B1: E. coli OmpT protease (purified OmpT protease specimen) (protein)
chain: STETLSFTPDNINADISLGTLSGKTKERVYLAEEGGRKVSQLDWKFNNAAIIKGAINWDLMPQISIGAAGWTTLGSRGGNMVDQDWMDSSNPGTWTDESRHPDTQLNYANEFDLNIKGWLLNEPNYRLGLMAGYQESRYSFTARGGSYIYSSEEGFRDDIGSFPNGERAIGYKQRFKMPYIGLTGSYRYEDFELGGTFKYSGWVESSDNDEHYDPGKRITYRSKVKDQNYYSVAVNAGYYVTPNAKVYVEGAWNRVTNKKGNTSLYDHNNNTSDYSKNGAGIENYNFITTAGLKYTF
Fusion protein PKA
  cleavage by OmpT protease (SDS-PAGE): PKA and PKS forming no basic amino acid pair were cleaved by OmpT protease
Fusion protein PRR-4Q
  Relative amount of 4.9 kDa peptide (HPLC; OmpT 2.0 U/ml, 25 C, 60 min) (relative to PRR = 100): 23
  cleavage by OmpT protease (SDS-PAGE; OmpT 2.0 U/ml): the cleavage by OmpT protease was observed in all of the fusion proteins
Fusion protein PRR-4A
  Relative amount of 4.9 kDa peptide (HPLC; 25 C, 60 min, pH 7.0) (relative to PRR = 100): 24
  Relative amount of 4.9 kDa peptide (HPLC; OmpT 2.0 U/ml, 25 C, 60 min) (relative to PRR = 100): 49
  cleavage by OmpT protease (SDS-PAGE): the cleavage by OmpT protease was confirmed in the fusion proteins other than PRR-1A
  cleavage by OmpT protease (SDS-PAGE; OmpT 2.0 U/ml): the cleavage by OmpT protease was observed in all of the fusion proteins
Fusion protein PRR
  Relative amount of 4.9 kDa peptide (HPLC; 25 C, 60 min, pH 7.0) (relative to PRR = 100): 100
  Relative amount of 4.9 kDa peptide (HPLC; OmpT 0.1 U/ml, 25 C, 60 min) (relative to PRR = 100): 100
  Relative amount of 4.9 kDa peptide (HPLC; OmpT 2.0 U/ml, 25 C, 60 min) (relative to PRR = 100): 100
  cleavage by OmpT protease (SDS-PAGE): the cleavage by OmpT protease was confirmed in the fusion proteins other than PRR-1A
  cleavage by OmpT protease (SDS-PAGE; OmpT 0.1 U/ml): the cleavage by OmpT protease was observed in all of the fusion proteins
  cleavage by OmpT protease (SDS-PAGE; OmpT 2.0 U/ml): the cleavage by OmpT protease was observed in all of the fusion proteins
Fusion protein RRhANP
  cleavage at sites inside the α-hANP moiety: arginine-arginine alone was slightly cleaved, among the four sites (arginine-arginine, arginine-methionine, arginine-isoleucine and arginine-tyrosine) existing in α-hANP molecule ... while the other bonds were scarcely cleaved
  cleavage by OmpT protease (SDS-PAGE): cleavage by OmpT protease was observed in RRhANP, RAhANP and RChANP
Fusion protein PRR-6A
  Relative amount of 4.9 kDa peptide (HPLC; 25 C, 60 min, pH 7.0) (relative to PRR = 100): 330
  Relative amount of 4.9 kDa peptide (HPLC; OmpT 0.1 U/ml, 25 C, 60 min) (relative to PRR = 100): 310
  cleavage by OmpT protease (SDS-PAGE): the cleavage by OmpT protease was confirmed in the fusion proteins other than PRR-1A
  cleavage by OmpT protease (SDS-PAGE; OmpT 0.1 U/ml): the cleavage by OmpT protease was observed in all of the fusion proteins
Fusion protein RShANPR
  relative amount of the released α-hANP (HPLC peak at 4.7 minutes; OmpT 2.0 U/ml, 25 C, 90 min): 2.2 times as much as that of RShANP
[1]
  cleavage by OmpT protease (preliminary experiments): this fusion protein is cleaved at two sites when treated with OmpT protease
Fusion protein PKD
  cleavage by OmpT protease (SDS-PAGE): PKD and PKE were not cleaved by OmpT protease
Fusion protein PKK
  cleavage by OmpT protease (SDS-PAGE): PKK and PKR employed as positive controls were cleaved by OmpT protease
Fusion protein PKS
  cleavage by OmpT protease (SDS-PAGE): PKA and PKS forming no basic amino acid pair were cleaved by OmpT protease
Fusion protein PRR-6N
  Relative amount of 4.9 kDa peptide (HPLC; OmpT 0.1 U/ml, 25 C, 60 min) (relative to PRR = 100): 430
  cleavage by OmpT protease (SDS-PAGE; OmpT 0.1 U/ml): the cleavage by OmpT protease was observed in all of the fusion proteins
Fusion protein PRE
  cleavage by OmpT protease (SDS-PAGE): In PRD and PRE, no cleavage by OmpT protease was observed
Fusion protein PRA
  cleavage efficiency by OmpT protease: Alanine and serine were employed because they showed relatively high cleavage efficiency in Example 3; also recorded: Alanine and cysteine were selected because they provided relatively high cleavage efficiency in Example 3
Fusion protein PRR-8A
  Relative amount of 4.9 kDa peptide (HPLC; 25 C, 60 min, pH 7.0) (relative to PRR = 100): 200
  cleavage by OmpT protease (SDS-PAGE): the cleavage by OmpT protease was confirmed in the fusion proteins other than PRR-1A
[2]
  cleavage by OmpT protease (SDS-PAGE): PRhANP was cleaved by OmpT protease
Fusion protein PRC
  cleavage efficiency by OmpT protease: Alanine and cysteine were selected because they provided relatively high cleavage efficiency in Example 3
Fusion protein RAhANP
  cleavage at sites inside the α-hANP moiety: arginine-arginine alone was slightly cleaved, among the four sites (arginine-arginine, arginine-methionine, arginine-isoleucine and arginine-tyrosine) existing in α-hANP molecule ... while the other bonds were scarcely cleaved
  cleavage by OmpT protease (SDS-PAGE): cleavage by OmpT protease was observed in RRhANP, RAhANP and RChANP
Fusion protein PRR-3A
  Relative amount of 4.9 kDa peptide (HPLC; 25 C, 60 min, pH 7.0) (relative to PRR = 100): 44
  cleavage by OmpT protease (SDS-PAGE): the cleavage by OmpT protease was confirmed in the fusion proteins other than PRR-1A
Fusion protein PRR-1A
  cleavage by OmpT protease (SDS-PAGE): The PRR-1A was not cleaved by OmpT protease
Fusion protein PRR-6K
  Relative amount of 4.9 kDa peptide (HPLC; OmpT 0.1 U/ml, 25 C, 60 min) (relative to PRR = 100): 1400
  cleavage by OmpT protease (SDS-PAGE; OmpT 0.1 U/ml): the cleavage by OmpT protease was observed in all of the fusion proteins
Fusion protein PRR-9A
  Relative amount of 4.9 kDa peptide (HPLC; 25 C, 60 min, pH 7.0) (relative to PRR = 100): 160
  cleavage by OmpT protease (SDS-PAGE): the cleavage by OmpT protease was confirmed in the fusion proteins other than PRR-1A
[3]
  cleavage by OmpT protease (SDS-PAGE): PRhCT was not cleaved thereby
Dynorphine A, P01213
  OmpT protease activity (cleavage of Dynorphine A, HPLC): 40 U/ml
Fusion protein PKE
  cleavage by OmpT protease (SDS-PAGE): PKD and PKE were not cleaved by OmpT protease
Fusion protein PRR-4D
  Relative amount of 4.9 kDa peptide (HPLC; OmpT 2.0 U/ml, 25 C, 60 min) (relative to PRR = 100): 2.8
  cleavage by OmpT protease (SDS-PAGE; OmpT 2.0 U/ml): the cleavage by OmpT protease was observed in all of the fusion proteins
Fusion protein PRR-4N
  Relative amount of 4.9 kDa peptide (HPLC; OmpT 2.0 U/ml, 25 C, 60 min) (relative to PRR = 100): 48
  cleavage by OmpT protease (SDS-PAGE; OmpT 2.0 U/ml): the cleavage by OmpT protease was observed in all of the fusion proteins
Fusion protein RShANP
  cleavage by OmpT protease (SDS-PAGE): it was confirmed that RShANP could be cleaved by OmpT protease
Fusion protein PRR-5A
  Relative amount of 4.9 kDa peptide (HPLC; 25 C, 60 min, pH 7.0) (relative to PRR = 100): 89
  cleavage by OmpT protease (SDS-PAGE): the cleavage by OmpT protease was confirmed in the fusion proteins other than PRR-1A
Fusion protein PRR-4K
  Relative amount of 4.9 kDa peptide (HPLC; OmpT 2.0 U/ml, 25 C, 60 min) (relative to PRR = 100): 96
  cleavage by OmpT protease (SDS-PAGE; OmpT 2.0 U/ml): the cleavage by OmpT protease was observed in all of the fusion proteins
Fusion protein PRS
  cleavage efficiency by OmpT protease: Alanine and serine were employed because they showed relatively high cleavage efficiency in Example 3
Fusion protein PRR-2A
  Relative amount of 4.9 kDa peptide (HPLC; 25 C, 60 min, pH 7.0) (relative to PRR = 100): 150
  cleavage by OmpT protease (SDS-PAGE): the cleavage by OmpT protease was confirmed in the fusion proteins other than PRR-1A
Fusion protein RChANP
  cleavage at sites inside the α-hANP moiety: arginine-arginine alone was slightly cleaved, among the four sites (arginine-arginine, arginine-methionine, arginine-isoleucine and arginine-tyrosine) existing in α-hANP molecule ... while the other bonds were scarcely cleaved
  cleavage by OmpT protease (SDS-PAGE): cleavage by OmpT protease was observed in RRhANP, RAhANP and RChANP
Fusion protein PKR
  cleavage by OmpT protease (SDS-PAGE): PKK and PKR employed as positive controls were cleaved by OmpT protease
Fusion protein PRR-4E
  Relative amount of 4.9 kDa peptide (HPLC; OmpT 2.0 U/ml, 25 C, 60 min) (relative to PRR = 100): 2
  cleavage by OmpT protease (SDS-PAGE; OmpT 2.0 U/ml): the cleavage by OmpT protease was observed in all of the fusion proteins
Fusion protein PRD
  cleavage by OmpT protease (SDS-PAGE): In PRD and PRE, no cleavage by OmpT protease was observed
Fusion protein PRR-10A
  Relative amount of 4.9 kDa peptide (HPLC; 25 C, 60 min, pH 7.0) (relative to PRR = 100): 160
  cleavage by OmpT protease (SDS-PAGE): the cleavage by OmpT protease was confirmed in the fusion proteins other than PRR-1A
Fusion protein PRR-6R
  Relative amount of 4.9 kDa peptide (HPLC; OmpT 0.1 U/ml, 25 C, 60 min) (relative to PRR = 100): 1000
  cleavage by OmpT protease (SDS-PAGE; OmpT 0.1 U/ml): the cleavage by OmpT protease was observed in all of the fusion proteins
Fusion protein PRR-6D
  Relative amount of 4.9 kDa peptide (HPLC; OmpT 0.1 U/ml, 25 C, 60 min) (relative to PRR = 100): 110
  cleavage by OmpT protease (SDS-PAGE; OmpT 0.1 U/ml): the cleavage by OmpT protease was observed in all of the fusion proteins
Fusion protein PRR-6Q
  Relative amount of 4.9 kDa peptide (HPLC; OmpT 0.1 U/ml, 25 C, 60 min) (relative to PRR = 100): 390
  cleavage by OmpT protease (SDS-PAGE; OmpT 0.1 U/ml): the cleavage by OmpT protease was observed in all of the fusion proteins
